{"source": "paper doi:10.1101/2020.01.12.903617", "about": "“The peptide sensor motif stabilizes the outward-facing conformation of TmrAB” (bioRxiv, 2020)", "key": {"TmrAB G131A^TmrA": {"target": "T1, TmrAB G131A^TmrA (Thermus thermophilus, UniProt Q72J05 1-600; Q72J04 1-578, G131A)", "T1 construct": "TmrA, Thermus thermophilus, the chain of TmrAB with the canonical Walker B motif; TmrB, Thermus thermophilus, the chain of TmrAB with the non-canonical Walker B motif; also called G131A^TmrA variant; source: cultured at room temperature for 16 hours after induction", "T1 sequence 1": "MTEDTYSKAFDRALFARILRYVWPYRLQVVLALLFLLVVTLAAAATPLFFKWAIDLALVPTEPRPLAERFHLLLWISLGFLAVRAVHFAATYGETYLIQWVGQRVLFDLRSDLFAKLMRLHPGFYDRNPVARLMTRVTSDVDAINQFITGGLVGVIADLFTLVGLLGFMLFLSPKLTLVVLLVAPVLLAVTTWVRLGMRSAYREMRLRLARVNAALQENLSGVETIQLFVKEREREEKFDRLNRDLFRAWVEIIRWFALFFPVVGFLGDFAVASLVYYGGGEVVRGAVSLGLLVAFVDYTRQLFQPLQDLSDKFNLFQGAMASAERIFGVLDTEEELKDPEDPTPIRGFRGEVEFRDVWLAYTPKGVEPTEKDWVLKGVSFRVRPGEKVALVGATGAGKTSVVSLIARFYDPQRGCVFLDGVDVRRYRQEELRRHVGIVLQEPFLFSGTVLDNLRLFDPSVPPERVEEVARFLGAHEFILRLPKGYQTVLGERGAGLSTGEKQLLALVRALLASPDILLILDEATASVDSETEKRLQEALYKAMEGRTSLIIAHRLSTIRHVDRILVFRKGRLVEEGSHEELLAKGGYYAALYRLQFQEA", "T1 sequence 2": "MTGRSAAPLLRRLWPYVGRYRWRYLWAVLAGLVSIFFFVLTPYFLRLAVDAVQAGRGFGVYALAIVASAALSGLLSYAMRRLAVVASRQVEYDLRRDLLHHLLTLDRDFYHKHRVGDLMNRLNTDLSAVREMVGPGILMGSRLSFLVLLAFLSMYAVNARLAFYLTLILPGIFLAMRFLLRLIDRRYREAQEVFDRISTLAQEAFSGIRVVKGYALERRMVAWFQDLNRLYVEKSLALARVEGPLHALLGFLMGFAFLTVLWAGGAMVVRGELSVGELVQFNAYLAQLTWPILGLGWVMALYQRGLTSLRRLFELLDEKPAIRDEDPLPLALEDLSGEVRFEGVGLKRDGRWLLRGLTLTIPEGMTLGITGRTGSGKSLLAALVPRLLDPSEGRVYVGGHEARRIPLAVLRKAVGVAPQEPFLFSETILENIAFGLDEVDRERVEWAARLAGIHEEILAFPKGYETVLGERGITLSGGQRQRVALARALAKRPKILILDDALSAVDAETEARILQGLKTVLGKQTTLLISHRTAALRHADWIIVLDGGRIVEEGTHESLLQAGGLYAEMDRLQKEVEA", "assay": "fluorescence polarisation; 1.7 uM TmrAB with 50 nM RRY(C^Fluorescein)KSTEL in SEC buffer (20 mM HEPES, 150 mM NaCl, pH 7, 0.05% ß-DDM), 15 minutes on ice, in the absence or presence of 5 mM ATP and 10 mM MgCl2; read at 25°C (the results say 4°C); signal normalized to WT without ATP", "settings": "both partners purified"}, "TmrAB D140A^TmrA": {"target": "T2, TmrAB D140A^TmrA (Thermus thermophilus, UniProt Q72J05 1-600; Q72J04 1-578, D140A)", "T2 construct": "TmrA, Thermus thermophilus, the chain of TmrAB with the canonical Walker B motif; TmrB, Thermus thermophilus, the chain of TmrAB with the non-canonical Walker B motif", "T2 sequence 1": "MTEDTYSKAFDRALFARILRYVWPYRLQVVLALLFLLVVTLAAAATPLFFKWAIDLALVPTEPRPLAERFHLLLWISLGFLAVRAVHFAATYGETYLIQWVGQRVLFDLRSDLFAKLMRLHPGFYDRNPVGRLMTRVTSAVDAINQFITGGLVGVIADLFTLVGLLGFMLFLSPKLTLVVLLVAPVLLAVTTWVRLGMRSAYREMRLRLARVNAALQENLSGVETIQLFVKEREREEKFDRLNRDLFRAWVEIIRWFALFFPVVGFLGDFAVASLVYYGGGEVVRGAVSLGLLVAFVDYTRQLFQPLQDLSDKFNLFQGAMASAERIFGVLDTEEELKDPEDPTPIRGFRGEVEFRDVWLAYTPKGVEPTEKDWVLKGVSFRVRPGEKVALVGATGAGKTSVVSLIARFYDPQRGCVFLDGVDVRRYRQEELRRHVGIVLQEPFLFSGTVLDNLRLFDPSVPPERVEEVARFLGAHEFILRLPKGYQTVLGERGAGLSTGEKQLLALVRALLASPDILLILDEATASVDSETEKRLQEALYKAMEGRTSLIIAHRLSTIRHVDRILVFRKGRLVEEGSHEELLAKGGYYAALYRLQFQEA", "T2 sequence 2": "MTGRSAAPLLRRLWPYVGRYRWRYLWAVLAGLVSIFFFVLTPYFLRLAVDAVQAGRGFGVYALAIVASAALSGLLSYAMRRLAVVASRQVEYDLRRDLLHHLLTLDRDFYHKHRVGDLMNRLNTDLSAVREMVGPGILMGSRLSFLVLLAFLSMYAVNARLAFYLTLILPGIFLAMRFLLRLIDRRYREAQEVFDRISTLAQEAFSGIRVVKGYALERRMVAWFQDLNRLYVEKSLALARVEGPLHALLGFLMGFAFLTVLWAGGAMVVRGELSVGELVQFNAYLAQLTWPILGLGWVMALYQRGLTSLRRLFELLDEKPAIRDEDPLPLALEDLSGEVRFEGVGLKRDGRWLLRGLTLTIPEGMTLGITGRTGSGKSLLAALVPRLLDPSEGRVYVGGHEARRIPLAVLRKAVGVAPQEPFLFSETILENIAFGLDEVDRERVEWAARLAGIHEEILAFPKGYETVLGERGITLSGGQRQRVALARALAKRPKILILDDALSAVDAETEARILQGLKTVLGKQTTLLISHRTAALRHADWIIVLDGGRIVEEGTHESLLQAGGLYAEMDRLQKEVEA", "assay": "fluorescence polarisation; 1.7 uM TmrAB with 50 nM RRY(C^Fluorescein)KSTEL in SEC buffer (20 mM HEPES, 150 mM NaCl, pH 7, 0.05% ß-DDM), 15 minutes on ice, in the absence or presence of 5 mM ATP and 10 mM MgCl2; read at 25°C (the results say 4°C); signal normalized to WT without ATP", "settings": "both partners purified"}}, "note": "No end group written: not given here. fluorescein = fluorescein label attached to the Cys side chain", "data": [{"binder": "RRYC(fluorescein)KSTEL (fluorescein-labelled transport substrate peptide of TmrAB; also called fluorescently-labeled peptide substrate; peptide substrate; source: bought: Genscript)", "note": "[fluorescent transport substrate peptide RRY(C^Fluorescein)KSTEL]", "values": [{"measurement": "binding result", "setting": "TmrAB G131A^TmrA", "result": "binds"}, {"measurement": "binding result", "setting": "TmrAB D140A^TmrA", "result": "binds"}]}]}
